Experimental data published in PMC7430671 (2020).

B1: RapZ_(1–279), BACTH fusion [E. coli] / full-length RNase E (RneFL), BACTH fusion [E. coli] (parent complex)
chain 1: MVLMIVSGRSGSGKSVALRALEDMGFYCVDNLPVVLLPDLARTLADREISAAVSIDVRNMPESPEIFEQAMSNLPDAFSPQLLFLDADRNTLIRRYSDTRRLHPLSSKNLSLESAIDKESDLLEPLRSRADLIVDTSEMSVHELAEMLRTRLLGKRERELTMVFESFGFKHGIPIDADYVFDVRFLPNPHWDPKLRPMTGLDKPVAAFLDRHTEVHNFIYQTRSYLELWLPMLETNNRSYLTVAIGCTGGKHRSVYIAEQLADYFRSRGKNVQSRHRTL
chain 2: not shown
B2: RapZ_(1–279), BACTH fusion [E. coli] / itself (parent complex)
chain: B1 chain 1

Variants of: B1
Assay: BACTH assay (β-galactosidase activity); top panel; T18-RapZ1-279 variant with T25-RneFL (pYG100); mean ± SD, n ≥ 2; parent: 1.7e+03; read off a plot

Variant	response [Miller units]
chain 1 T278G	~980
chain 1 T278G, chain 1 L279G	~50
chain 1 L279G	~100

Variants of: B2
Assay: BACTH assay (self-interaction; β-galactosidase activity); bottom panel; same RapZ1-279 variant fused to T18 and to T25; mean ± SD, n ≥ 2; parent: 4.1e+03; read off a plot

Variant	response [Miller units]
MVLMIVSGRSGSGKSVALRALEDMGFYCVDNLPVVLLPDLARTLADREISAAVSIDVRNMPESPEIFEQAMSNLPDAFSPQLLFLDADRNTLIRRYSDTRRLHPLSSKNLSLESAIDKESDLLEPLRSRADLIVDTSEMSVHELAEMLRTRLLGKRERELTMVFESFGFKHGIPIDADYVFDVRFLPNPHWDPKLRPMTGLDKPVAAFLDRHTEVHNFIYQTRSYLELWLPMLETNNRSYLTVAIGCTGGKHRSVYIAEQLADYFRSRGKNVQSRHRGL [chain 1 T278G]	~4000
MVLMIVSGRSGSGKSVALRALEDMGFYCVDNLPVVLLPDLARTLADREISAAVSIDVRNMPESPEIFEQAMSNLPDAFSPQLLFLDADRNTLIRRYSDTRRLHPLSSKNLSLESAIDKESDLLEPLRSRADLIVDTSEMSVHELAEMLRTRLLGKRERELTMVFESFGFKHGIPIDADYVFDVRFLPNPHWDPKLRPMTGLDKPVAAFLDRHTEVHNFIYQTRSYLELWLPMLETNNRSYLTVAIGCTGGKHRSVYIAEQLADYFRSRGKNVQSRHRTG [chain 1 L279G]	~3300
